In data set [1] the test system is ChxR effector domain (ChxREff) (Chlamydia trachomatis). Put plainly: EMSA. Particulars: EMSA as in ref 17 (buffer, salt, pH, temperature not given); 1 nM IR800-DNA with 50 nM-10 uM ChxREff, triplicate; 44 uM full-length ChxR (wild type, H186A) in …. Background: Mobility shift assays separate free from complexed probe on a gel.
Data set [2] deals with the molecule itself. Put plainly: SAXS; full-length ChxR in solution at 1.25, 2.5 and 5.0 mg/ml, 20°C, 5% (v/v) glycerol added; curves extrapolated to infinite dilution; mass estimated from the Porod volume.
Data set [3] concerns the molecule itself. Briefly: SEC; proper folding of the full-length ChxR Ala mutants was assessed by size exclusion chromatography; the sentence on homodimers names no method. For orientation: Size exclusion chromatography separates by hydrodynamic size, large species first.

As usually defined, the Kd is a measure of binding affinity in units of concentration. Take DR2 site of chxR promoter: the dissociation constant Kd in data set [1] turned out to be 450 nM.

B1: full-length ChxR (natural protein, Chlamydia trachomatis, UniProt A0A0H3MDW1 1-227, looked up)
chain: MAGPKHVLLVSEHWDLFFQTKELLNPEEYRCTIGQQYKQELSADLVVCEYSLLPREIRSPKSLEGSFVLVLLDFFDEETSVDLLDRGFWYLIRPITPRILKSAISLFLSQHSLHSVPESIRFGPNVFYVLKLTVETPEGSVHLTPSESGILKRLLINKGQLCLRKHLLEEIKNHAKAIVARNVDVHIASLRKKLGAYGSRIVTLRGVGYLFSDDGDKKFSQQDTKLS
notes: ChxR, atypical OmpR/PhoB subfamily response regulator of Chlamydia trachomatis, full length; The calculated MW of the dimer is ~56 kDa; also called wild-type ChxR; not shown: His-tag (24 residues), N-terminal, kept
As usually defined, the stoichiometry N is a count of units in the complex or per binding partner. As for B1, the “stoichiometry N” value in data set [2] is 2.

B2: full-length ChxR with Ala substitution of Arg205 (natural protein)
chain: MAGPKHVLLVSEHWDLFFQTKELLNPEEYRCTIGQQYKQELSADLVVCEYSLLPREIRSPKSLEGSFVLVLLDFFDEETSVDLLDRGFWYLIRPITPRILKSAISLFLSQHSLHSVPESIRFGPNVFYVLKLTVETPEGSVHLTPSESGILKRLLINKGQLCLRKHLLEEIKNHAKAIVARNVDVHIASLRKKLGAYGSRIVTLAGVGYLFSDDGDKKFSQQDTKLS
notes: ChxR of Chlamydia trachomatis, full-length protein with an Ala substitution; Made from the same plasmid as m1; also called Arg205 substitution; source: mutation introduced into the full-length ChxR plasmid (QuikChange II XL)
On to B2, for which the binding result in data set [3] is listed as “binds”.

B3: ChxR^H186A (natural protein)
chain: MAGPKHVLLVSEHWDLFFQTKELLNPEEYRCTIGQQYKQELSADLVVCEYSLLPREIRSPKSLEGSFVLVLLDFFDEETSVDLLDRGFWYLIRPITPRILKSAISLFLSQHSLHSVPESIRFGPNVFYVLKLTVETPEGSVHLTPSESGILKRLLINKGQLCLRKHLLEEIKNHAKAIVARNVDVAIASLRKKLGAYGSRIVTLRGVGYLFSDDGDKKFSQQDTKLS
notes: ChxR of Chlamydia trachomatis, full-length protein with an Ala substitution; Made from the same plasmid as m1; also called His186 substitution; source: mutation introduced into the full-length ChxR plasmid (QuikChange II XL)
In the case of B3, in data set [3], the binding result was “binds”.

B4: full-length ChxR with Ala substitution of Asn182 (natural protein)
chain: MAGPKHVLLVSEHWDLFFQTKELLNPEEYRCTIGQQYKQELSADLVVCEYSLLPREIRSPKSLEGSFVLVLLDFFDEETSVDLLDRGFWYLIRPITPRILKSAISLFLSQHSLHSVPESIRFGPNVFYVLKLTVETPEGSVHLTPSESGILKRLLINKGQLCLRKHLLEEIKNHAKAIVARAVDVHIASLRKKLGAYGSRIVTLRGVGYLFSDDGDKKFSQQDTKLS
notes: ChxR of Chlamydia trachomatis, full-length protein with an Ala substitution; Made from the same plasmid as m1; also called Asn182 substitution; source: mutation introduced into the full-length ChxR plasmid (QuikChange II XL)
B4: the binding result in data set [3] was “binds”.

B5: full-length ChxR with Ala substitution of Lys192 (natural protein)
chain: MAGPKHVLLVSEHWDLFFQTKELLNPEEYRCTIGQQYKQELSADLVVCEYSLLPREIRSPKSLEGSFVLVLLDFFDEETSVDLLDRGFWYLIRPITPRILKSAISLFLSQHSLHSVPESIRFGPNVFYVLKLTVETPEGSVHLTPSESGILKRLLINKGQLCLRKHLLEEIKNHAKAIVARNVDVHIASLRAKLGAYGSRIVTLRGVGYLFSDDGDKKFSQQDTKLS
notes: ChxR of Chlamydia trachomatis, full-length protein with an Ala substitution; Made from the same plasmid as m1; also called Lys192 substitution; source: mutation introduced into the full-length ChxR plasmid (QuikChange II XL)
As for B5, in data set [3], the binding result is “binds”.

These data come from publication PMC3960148, “Atypical Response Regulator ChxR from Chlamydia trachomatis Is Structurally Poised for DNA Binding” (PLoS ONE, 2014).
